From publication PMC2943728 come the findings set out here.

For orientation: Kd means the concentration at which binding is half-saturated. High values mean lower affinity, low ones higher affinity.

The series concerns the target DNA polymerase beta (WT pol β) (UniProt P06746 1-335). Briefly: EMSA.

B1: 45AG 1-nt gapped DNA (dsDNA)
DNA 1: GCCTCGCAGCCGTCCAACCAAC
DNA 2: CAACCTCGATCCAATGCCGTCC
DNA 3: GGACGGCATTGGATCGAGGTTGAGTTGGTTGGACGGCTGCGAGGC
modifications: 5'-phosphate on downstream oligo and template
B1 registered a dissociation constant (Kd) of 78 nM.
